Source: patent US20030022261A1 (SALK INSTITUTE FOR BIOLOGICAL STUDIES, published 2003)

Target: T1, papain (immobilised, papain affinity chromatography) (UniProt P00784 134-345)
T1 sequence (looked up): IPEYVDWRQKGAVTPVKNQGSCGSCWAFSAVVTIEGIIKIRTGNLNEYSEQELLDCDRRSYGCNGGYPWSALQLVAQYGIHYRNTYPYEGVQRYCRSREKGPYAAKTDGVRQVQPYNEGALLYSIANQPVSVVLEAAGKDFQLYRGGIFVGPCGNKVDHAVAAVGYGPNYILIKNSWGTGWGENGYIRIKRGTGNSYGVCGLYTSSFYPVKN
Experiment: papain affinity chromatography (retention on immobilised papain during purification)

- binding result: binds
B1: glycosylated cystatin C (CCg), 21 kDa protein purified from conditioned medium of adult rat hippocampus-derived neural progenitor cells (other, UniProt P14841 21-140, looked up)
chain: GTSRPPPRLLGAPQEADASEEGVQRALDFAVSEYNKGSNDAYHSRAIQVVRARKQLVAGINYYLDVEMGRTTCTKSQTNLTNCPFHDQPHLMRKALCSFQIYSVPWKGTHTLTKSSCKNA
modifications: N-linked carbohydrate moiety of approximately 2.4 kDa (about 15 hexose residues) at the N-glycosylation site (Asn79-X-Thr); carbohydrate moiety of 0.3 kDa at the O-glycosylation site (Ser3)
notes: mature; also called glycosylated form of cystatin C; stem cell glycocystatin C
